In general, Kd refers to a measure of binding affinity in units of concentration. High values mean lower affinity, low ones higher affinity.

In data set [1] the target is T1, His-KDM4D-FL (human, UniProt Q6B0I6 1-523).
T1 sequence: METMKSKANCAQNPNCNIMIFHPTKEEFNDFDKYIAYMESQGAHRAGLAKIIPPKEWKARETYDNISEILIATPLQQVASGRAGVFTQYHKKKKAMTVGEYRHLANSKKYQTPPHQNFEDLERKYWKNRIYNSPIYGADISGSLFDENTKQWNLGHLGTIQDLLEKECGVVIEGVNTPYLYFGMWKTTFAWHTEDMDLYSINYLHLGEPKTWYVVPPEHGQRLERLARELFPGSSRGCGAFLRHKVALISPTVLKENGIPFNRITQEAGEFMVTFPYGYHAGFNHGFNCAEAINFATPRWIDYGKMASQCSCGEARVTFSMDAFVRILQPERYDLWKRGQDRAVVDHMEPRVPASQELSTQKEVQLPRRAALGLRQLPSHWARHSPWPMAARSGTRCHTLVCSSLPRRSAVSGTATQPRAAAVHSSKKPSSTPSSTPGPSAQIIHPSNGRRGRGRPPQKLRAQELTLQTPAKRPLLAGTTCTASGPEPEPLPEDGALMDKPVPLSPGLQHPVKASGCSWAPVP
In words: fluorescence anisotropy.

Data set [2] concerns the target T2, His-KDM4D1-350 (human, UniProt Q6B0I6 1-350).
T2 sequence: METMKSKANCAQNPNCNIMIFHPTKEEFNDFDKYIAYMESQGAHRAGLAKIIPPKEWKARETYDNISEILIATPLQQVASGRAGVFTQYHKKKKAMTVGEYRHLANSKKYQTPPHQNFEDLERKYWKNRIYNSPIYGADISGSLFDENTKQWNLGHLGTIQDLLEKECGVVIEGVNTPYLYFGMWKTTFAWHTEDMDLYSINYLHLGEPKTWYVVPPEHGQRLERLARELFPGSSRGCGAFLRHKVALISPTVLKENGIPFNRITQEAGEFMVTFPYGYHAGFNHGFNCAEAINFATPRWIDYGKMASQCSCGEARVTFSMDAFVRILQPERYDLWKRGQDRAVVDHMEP
Kind of data set: fluorescence anisotropy. (Fluorescence polarisation rises when a labelled molecule tumbles more slowly, as on binding a larger partner.)

A further data set has as its target T3, His-KDM4D1-350-1H4R-HRK (human, UniProt Q6B0I6 1-350, H115A;R123A;K127A;H219A;R222A;R225A;R228A;R236A).
T3 sequence: T2 sequence with H115A, R123A, K127A, H219A, R222A, R225A, R228A, R236A
Kind of data set: fluorescence anisotropy.

The target in another data set is T4, His-KDM4D-FL-1H4R-HRK (human, UniProt Q6B0I6 1-523, H115A;R123A;K127A;H219A;R222A;R225A;R228A;R236A).
T4 sequence: T1 sequence with H115A, R123A, K127A, H219A, R222A, R225A, R228A, R236A
In words: EMSA. Background: Mobility shift assays separate free from complexed probe on a gel.

Data set [3] deals with T1, His-KDM4D-FL. In words: EMSA.
The target in a further data set is T5, GST-KDM4D348-523 (human, UniProt Q6B0I6 348-523).
T5 sequence: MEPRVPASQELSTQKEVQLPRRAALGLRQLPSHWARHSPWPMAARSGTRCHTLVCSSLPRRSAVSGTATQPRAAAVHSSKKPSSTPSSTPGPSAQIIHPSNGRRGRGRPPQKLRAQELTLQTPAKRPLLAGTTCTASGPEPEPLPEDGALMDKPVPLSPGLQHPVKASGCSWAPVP
Kind of data set: EMSA.

Data set [4] addresses T2, His-KDM4D1-350. Kind of data set: EMSA.
The target of another data set is T6, His-KDM4D-N202M (human, UniProt Q6B0I6 1-523, N202M).
T6 sequence: T1 sequence with N202M
In words: EMSA.

Residue numbers refer to the chain shown, from its start.

B1: 22nt RNA (RNAF-22) (ssRNA)
RNA: UUAACACAAAAUACGCACCCCA
In the case of B1, the Kd in the data set with His-KDM4D-FL [1] is about 126 nM; with His-KDM4D1-350 [2], about 1220 nM. The binding result with His-KDM4D1-350-1H4R-HRK was “no binding”.

B2: 100nt RNA (ssRNA)
RNA: GGGCGAAUUGGGCCCGACGUCGCAUGCUCCCGGCCGCCAUGGCGGCCGCGGGAAUUCGAUUAGUUCCCCUAAUAAUCGGUGCCCCCGAUAUGGCGUUUA
Turning to B2, the Kd with His-KDM4D-FL-1H4R-HRK was over 100 nM; with His-KDM4D-FL [3], about 20 nM; in the data set with GST-KDM4D348-523 it was over 100 nM; with His-KDM4D1-350 [4], about 80 nM; with His-KDM4D-N202M, about 15 nM.

B3: 37nt RNA (ssRNA)
RNA: GGGCGAAUUGGGCCCGACGUCGCAUGCUCCCGGCCGC
As to B3, the Kd in the data set with His-KDM4D-FL [3] was under 50 nM.
